According to patent US20250237662A1:
Blank lines part the entries; values can stand above or below the substance they belong to.

What was measured:
[1] = molecular target: humanized development candidate monoclonal antibody IgG4 (hIgG4); experiment: Gyrolab, mAb as capture, hIgG4 8 ng/ml
[2] = molecular target: humanized development candidate monoclonal antibody IgG4 (hIgG4); experiment: Gyrolab, mAb as capture, hIgG4 40 ng/ml
[3] = molecular target: humanized development candidate monoclonal antibody IgG4 (hIgG4); experiment: Gyrolab, mAb as capture, hIgG4 1.6 ng/ml
[4] = molecular target: humanized development candidate monoclonal antibody IgG4 (hIgG4); experiment: Gyrolab, mAb as capture, hIgG4 200 ng/ml
[5] = molecular target: humanized development candidate monoclonal antibody IgG4 (hIgG4); experiment: Gyrolab, mAb as capture, hIgG4 0.32 ng/ml
[6] = molecular target: humanized development candidate monoclonal antibody IgG4 (hIgG4); experiment: Gyrolab, mAb as capture, hIgG4 1000 ng/ml
[7] = molecular target: humanized development candidate monoclonal antibody IgG4 (hIgG4); experiment: Gyrolab, mAb as capture, hIgG4 5000 ng/ml
[8] = molecular target: humanized development candidate monoclonal antibody IgG4 (hIgG4); experiment: SPR (Biacore T200), under the same conditions as the rabbit clones, antigen 80-0 nM, 1:1 fit
[9] = molecular target: humanized therapeutic monoclonal antibody IgG1 (hIgG1); experiment: as above
[10] = molecular target: humanized development candidate monoclonal antibody IgG4 (hIgG4); experiment: Gyrolab, capture reagent, hIgG4 8 ng/ml
[11] = molecular target: humanized development candidate monoclonal antibody IgG4 (hIgG4); experiment: Gyrolab, capture reagent, hIgG4 40 ng/ml
[12] = molecular target: humanized development candidate monoclonal antibody IgG4 (hIgG4); experiment: Gyrolab, capture reagent, hIgG4 1.6 ng/ml
[13] = molecular target: humanized development candidate monoclonal antibody IgG4 (hIgG4); experiment: Gyrolab, capture reagent, hIgG4 200 ng/ml
[14] = molecular target: humanized development candidate monoclonal antibody IgG4 (hIgG4); experiment: Gyrolab, capture reagent, hIgG4 0.32 ng/ml
[15] = molecular target: humanized development candidate monoclonal antibody IgG4 (hIgG4); experiment: Gyrolab, capture reagent, hIgG4 1000 ng/ml
[16] = molecular target: humanized development candidate monoclonal antibody IgG4 (hIgG4); experiment: Gyrolab, capture reagent, hIgG4 5000 ng/ml
[17] = molecular target: humanized development candidate monoclonal antibody IgG4 (hIgG4); experiment: Gyrolab, capture reagent, hIgG4 8 ng/ml, against the blank
[18] = molecular target: humanized development candidate monoclonal antibody IgG4 (hIgG4); experiment: Gyrolab, capture reagent, hIgG4 40 ng/ml, against the blank
[19] = molecular target: humanized development candidate monoclonal antibody IgG4 (hIgG4); experiment: Gyrolab, capture reagent, hIgG4 1.6 ng/ml, against the blank
[20] = molecular target: humanized development candidate monoclonal antibody IgG4 (hIgG4); experiment: Gyrolab, capture reagent, hIgG4 200 ng/ml, against the blank
[21] = molecular target: humanized development candidate monoclonal antibody IgG4 (hIgG4); experiment: Gyrolab, capture reagent, hIgG4 0.32 ng/ml, against the blank
[22] = molecular target: humanized development candidate monoclonal antibody IgG4 (hIgG4); experiment: Gyrolab, capture reagent, hIgG4 1000 ng/ml, against the blank
[23] = molecular target: humanized development candidate monoclonal antibody IgG4 (hIgG4); experiment: Gyrolab, capture reagent, hIgG4 5000 ng/ml, against the blank
[24] = molecular target: drug: a monoclonal antibody of human IgG4 isotype (PandA assay); experiment: PandA assay, mAb 1 ug/ml in monkey plasma
[25] = molecular target: drug: a monoclonal antibody of human IgG4 isotype (PandA assay); experiment: PandA assay, mAb 0.5 ug/ml in monkey plasma
[26] = molecular target: drug: a monoclonal antibody of human IgG4 isotype (PandA assay); experiment: PandA assay, mAb 0.75 ug/ml in monkey plasma
[27] = molecular target: drug: a monoclonal antibody of human IgG4 isotype (PandA assay); experiment: PandA assay, signal to noise against the negative control
[28] = molecular target: drug: a monoclonal antibody of human IgG4 isotype (PandA assay); experiment: PandA assay (PEG precipitation, acid dissociation, MSD plate, sulfo-TAG-drug), mAb 5 ug/ml in monkey plasma

Av. Resp. [1]: 18.4
Av. Resp. [2]: 33.8
Av. Resp. [3]: 14.2
Av. Resp. [4]: 86.7
Av. Resp. [5]: 13.6
Av. Resp. [6]: 214
Av. Resp. [7]: 283
Kd [8]: 1.57 nM
Kd [9]: 1.82 nM
Substance: mouse anti-human IgG monoclonal antibody MCA5748G (Bio-Rad)

Av. Resp. [10]: 9.3
Av. Resp. [11]: 26.1
Av. Resp. [12]: 5.3
Av. Resp. [13]: 94.1
Av. Resp. [14]: 4.6
Av. Resp. [15]: 267
Av. Resp. [16]: 468
S/B [17]: 2.1
S/B [18]: 5.7
S/B [19]: 1.2
S/B [20]: 20.8
S/B [21]: 1
S/B [22]: 59
S/B [23]: 103
Substance: Gyrolab generic PK assay capture reagent

ECL Signal [24]: 182
ECL Signal [25]: 130
ECL Signal [26]: 148
S/N [27]: 1.37
ECL Signal [28]: 756
Substance: mouse anti-Fc monoclonal antibody clone JDC-10 (Southern Biotech, Cat. No. 9040-01)
